The target in the experiment is T1, BZR1 (Arabidopsis thaliana, UniProt Q8S307).
T1 construct: expressed in transfected cells; host or cells: Nicotiana benthamiana leaves (Agrobacterium infiltration)
T1 sequence (Q8S307 1-336): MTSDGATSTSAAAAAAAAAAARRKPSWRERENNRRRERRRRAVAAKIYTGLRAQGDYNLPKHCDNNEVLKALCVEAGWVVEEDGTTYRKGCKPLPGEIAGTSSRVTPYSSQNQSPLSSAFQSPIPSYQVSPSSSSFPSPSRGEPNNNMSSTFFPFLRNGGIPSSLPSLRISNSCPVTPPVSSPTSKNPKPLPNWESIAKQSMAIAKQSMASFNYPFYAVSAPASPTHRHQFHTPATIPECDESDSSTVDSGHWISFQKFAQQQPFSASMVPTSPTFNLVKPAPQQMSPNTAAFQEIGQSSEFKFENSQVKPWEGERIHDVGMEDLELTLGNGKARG
The experiment can be described thus: BiFC interaction with BZR1 in Nicotiana benthamiana leaves. In kind it is cell-based. The source says: The binary BiFC-Gateway YFP vectors pDEST-VYNE(R)^GW (Venus aa 1-173) and pDEST-VYCE(R)^GW (Venus aa 156-239) with N-terminal fusions, were used to construct the following vectors; pDESTnYFP-BZR1, pDESTnYFP-NINJA, pDESTnYFP-PPD1, pDESTcYFP-BZR1, pDESTcYFP-PPD1, pDESTcYFP-PPD1Δppd, pDESTcYFP-PPD1Δtify and pDESTcYFP-PPD1Δjas*. […] Plasmids for co-immunoprecipitation: A synthesised DNA construct encoding PPD1 with a 3×c-myc C-terminal fusion was sub-cloned into pRSh1 to produce pRSh1-PPD1-3×c-myc, while the NINJA cDNA sequence was sub-cloned into pB7FWG2,0 (Karimi et al 2002, Trends Plant Sci. 7, 193-195) to construct pB7FWG2-NINJA-GFP.
For infiltration Agrobacterium tumefaciens GV3101 strains containing the binary vectors were re-suspended from plates and prepared for transformation as described for the LUC assay. All YFP and expression strains were mixed in ratios of 1:1 (vol/vol) with the addition of strain P19 at 1/10th volume. Five leaf discs were sampled from each infiltrated leaf after 40 h. Two hours prior to sampling for microscopic fluorescence observations leaves were infiltrated with a 1 μg/ml DAPI solution to stain nuclei. YFP fluorescence and DAPI staining was detected using an Olympus Fluoview FV10i confocal laser scanning microscope. Each experiment was repeated twice.

B1: Arabidopsis PPD: Arabidopsis thaliana PEAPOD 1 protein, At4g14713, SEQ ID NO: 1 (protein, listed as Arabidopsis thaliana)
chain: MDVGVSPAKSILAKPLKLLTEEDISQLTREDCRKFLKDKGMRRPSWNKSQAIQQVLSLKALYEPGDDSGAGIFRKILVSQPVNPPRVTTTLIEPSNELEACGRVSYPEDNGACHRMDSPRSAEFSGGSGHFVSEKDGHKTTISPRSPAETSELVGQMTIFYSGKVNVYDGIPPEKARSIMHFAANPIDLPENGIFASSRMISKLISKEKMMELPQKGLEKANSSRDSGMEGQANRKVSLQRYREKRKDRKFSKAKKCPGVASSSLEMFLNCQPRMKAAYSQNLGCTGSPLHSQSPESQTKSPNLSVDLNSEGI
For B1, the “BiFC interaction with BZR1” value by setting is: (fully expanded leaves, co-expression of NINJA) “restored”; (pavement cells of immature Nicotiana benthamiana leaves) “appears to interact with BZR1 in the nucleus”.

The values are drawn from patent publication US10337022B2, “Methods of increasing root biomass in plants” (Agresearch Limited, priority 2014, dated 2019).
